In article PMC10397247 one finds interaction score data, which are given here for 6 molecules.

Common to all, as to assay: two-hybrid library CCmax;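 further: natural log of median RNA to DNA barcode read ratio; higher means stronger binding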
One assay concerns the target T1, 4H536-AA.
T1 chain: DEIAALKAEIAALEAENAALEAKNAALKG
The settings on record: mean of both orientations.

A further assay addresses T2, 4H930-AA.
T2 chain: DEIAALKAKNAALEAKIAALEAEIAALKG
The conditions noted are these: mean of both orientations.

The target in the next assay is T3, 4H570-AA.
T3 chain: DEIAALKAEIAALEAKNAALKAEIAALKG
The settings on record: mean of both orientations.

For a further assay, the target named is T4, 4H3165-AA.
T4 chain: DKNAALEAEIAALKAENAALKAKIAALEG
The settings on record: mean of both orientations.

The next assay addresses T5, 4H458-AA.
T5 chain: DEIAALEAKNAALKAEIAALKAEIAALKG
The settings on record: mean of both orientations.

The next assay deals with T6, 4H3016-AA.
T6 chain: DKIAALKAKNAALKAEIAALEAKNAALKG
The conditions noted are these: mean of both orientations.

In a further assay the target is T7, 4H3009-AA.
T7 chain: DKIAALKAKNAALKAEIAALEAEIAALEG
The conditions noted are these: mean of both orientations.

For a further assay, the target named is T8, 4H745-AA.
T8 chain: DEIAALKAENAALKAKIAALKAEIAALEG
The conditions noted are these: mean of both orientations.

Another assay has as its target T9, 4H310-AA.
T9 chain: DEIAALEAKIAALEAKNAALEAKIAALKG
The settings on record: mean of both orientations.

Another assay concerns the target T10, 4H850-AA.
T10 chain: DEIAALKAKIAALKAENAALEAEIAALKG
The conditions noted are these: mean of both orientations.

The target of another assay is T11, 4H94-AA.
T11 chain: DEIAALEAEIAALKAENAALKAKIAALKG
The conditions noted are these: mean of both orientations.

For another assay, the target named is T12, 4H2725-AA.
T12 chain: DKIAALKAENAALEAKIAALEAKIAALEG

A further assay deals with T13, 4H3697-AA.
T13 chain: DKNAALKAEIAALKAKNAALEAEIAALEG

For a further assay, the target named is T14, 4H909-AA.
T14 chain: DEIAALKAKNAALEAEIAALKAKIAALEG
The conditions noted are these: mean of both orientations.

Another assay has as its target T15, 4H629-AA.
T15 chain: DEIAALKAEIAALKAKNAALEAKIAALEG
The conditions noted are these: mean of both orientations.

For another assay, the target named is T16, 4H3590-AA.
T16 chain: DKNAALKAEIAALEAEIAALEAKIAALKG
The conditions noted are these: mean of both orientations.

The target in a further assay is T17, 4H3381-AA.
T17 chain: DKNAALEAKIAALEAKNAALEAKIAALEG
The conditions noted are these: mean of both orientations.

The next assay addresses T18, 4H3130-AA.
T18 chain: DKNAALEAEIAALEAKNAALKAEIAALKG
The settings on record: mean of both orientations.

Another assay deals with T19, 4H3395-AA.
T19 chain: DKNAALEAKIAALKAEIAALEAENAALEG
The settings on record: mean of both orientations.

A further assay concerns the target T20, 4H797-AA.
T20 chain: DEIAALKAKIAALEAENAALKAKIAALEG
The conditions noted are these: mean of both orientations.

A further assay addresses T21, 4H485-AA.
T21 chain: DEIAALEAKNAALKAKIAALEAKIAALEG
The conditions noted are these: mean of both orientations.

Another assay addresses T22, 4H3120-AA.
T22 chain: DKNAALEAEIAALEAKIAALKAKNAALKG
The settings on record: mean of both orientations.

For a further assay, the target named is T23, 4H710-AA.
T23 chain: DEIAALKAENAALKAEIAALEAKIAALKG
The settings on record: mean of both orientations.

The next assay deals with T24, 4H3753-AA.
T24 chain: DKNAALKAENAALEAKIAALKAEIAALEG
The conditions noted are these: mean of both orientations.

A further assay addresses T25, 4H3410-AA.
T25 chain: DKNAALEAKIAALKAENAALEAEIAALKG
The conditions noted are these: mean of both orientations.

The next assay concerns the target T26, 4H891-AA.
T26 chain: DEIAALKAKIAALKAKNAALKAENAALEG
The settings on record: mean of both orientations.

Another assay concerns the target T27, 4H3865-AA.
T27 chain: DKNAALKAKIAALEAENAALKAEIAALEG
The conditions noted are these: mean of both orientations.

In another assay the target is T28, 4H2865-AA.
T28 chain: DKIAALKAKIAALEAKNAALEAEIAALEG
The conditions noted are these: mean of both orientations.

For the next assay, the target named is T29, 4H380-AA.
T29 chain: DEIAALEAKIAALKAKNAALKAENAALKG
The conditions noted are these: mean of both orientations.

In a further assay the target is T30, 4H3915-AA.
T30 chain: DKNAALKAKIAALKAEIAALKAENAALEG
The conditions noted are these: mean of both orientations.

In another assay the target is T31, 4H3449-AA.
T31 chain: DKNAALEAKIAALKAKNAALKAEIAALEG

The next assay has as its target T32, 4H3629-AA.
T32 chain: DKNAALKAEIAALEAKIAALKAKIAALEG
The conditions noted are these: mean of both orientations.

A further assay has as its target T33, 4H432-AA.
T33 chain: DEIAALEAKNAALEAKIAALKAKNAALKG
The settings on record: mean of both orientations.

The target in a further assay is T34, 4H3777-AA.
T34 chain: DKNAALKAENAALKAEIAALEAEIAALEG
The settings on record: mean of both orientations.

In a further assay the target is T35, 4H3619-AA.
T35 chain: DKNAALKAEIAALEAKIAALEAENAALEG
The settings on record: mean of both orientations.

For a further assay, the target named is T36, 4H446-AA.
T36 chain: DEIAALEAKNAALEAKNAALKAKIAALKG
The settings on record: mean of both orientations.

In a further assay the target is T37, 4H3974-AA.
T37 chain: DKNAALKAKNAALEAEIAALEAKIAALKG
The settings on record: mean of both orientations.

In the next assay the target is T38, 4H63-AA.
T38 chain: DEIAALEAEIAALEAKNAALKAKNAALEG

The target in the next assay is T39, 4H662-AA.
T39 chain: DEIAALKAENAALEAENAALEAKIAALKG

In another assay the target is T40, APC9182-AA.
T40 chain: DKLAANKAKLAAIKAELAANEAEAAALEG
The settings on record: mean of both orientations.

Another assay deals with T41, APC7524-AA.
T41 chain: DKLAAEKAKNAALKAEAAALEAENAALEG

Another assay deals with T42, APC9141-AA.
T42 chain: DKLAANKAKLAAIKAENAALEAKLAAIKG
The conditions noted are these: mean of both orientations.

The target of a further assay is T43, APC8516-AA.
T43 chain: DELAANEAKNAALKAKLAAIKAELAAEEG
The settings on record: mean of both orientations.

For the next assay, the target named is T44, APC9291-AA.
T44 chain: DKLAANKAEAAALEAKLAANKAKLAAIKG
The conditions noted are these: mean of both orientations.

The next assay deals with T45, APC8401-AA.
T45 chain: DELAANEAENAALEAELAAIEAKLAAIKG
The settings on record: mean of both orientations.

In the next assay the target is T46, APC9806-AA.
T46 chain: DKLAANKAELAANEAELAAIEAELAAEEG
The conditions noted are these: mean of both orientations.

For a further assay, the target named is T47, 4H55-AA.
T47 chain: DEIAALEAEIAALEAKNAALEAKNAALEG

Another assay deals with T48, APC9319-AA.
T48 chain: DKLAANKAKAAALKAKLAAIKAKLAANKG
The conditions noted are these: mean of both orientations.

For a further assay, the target named is T49, APC9096-AA.
T49 chain: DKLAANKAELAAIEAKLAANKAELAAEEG
The settings on record: mean of both orientations.

For another assay, the target named is T50, APC8910-AA.
T50 chain: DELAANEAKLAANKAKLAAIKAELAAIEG

A further assay has as its target T51, APC8191-AA.
T51 chain: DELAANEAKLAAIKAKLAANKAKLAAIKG

Read-outs that look alike come from different tables or passages of the source.

Take DKIAALKAENAALEAKIAALEAKIAALEG [4H2725-AA]: the interaction score with 4H536-AA was -1.71; with 4H930-AA, 0.224; with 4H570-AA, -0.95; in the assay with 4H3165-AA, -0.466; with 4H458-AA, 0.908; with 4H3016-AA it was -0.188. The interaction score in the assay with 4H3009-AA is 1.76; with 4H745-AA it was 1.36; in the assay with 4H310-AA it was -1.1; in the assay with 4H850-AA, -0.653; with 4H94-AA, -0.91; with 4H2725-AA, 1.47. Besides, the interaction score with 4H3697-AA was 1.2; with 4H909-AA it was -0.311; in the assay with 4H629-AA, -0.516; in the assay with 4H3590-AA, -0.62; with 4H3381-AA it was -1.94; with 4H3130-AA, -0.815. Besides, the interaction score in the assay with 4H3395-AA was -1.64; with 4H797-AA, -1.21; with 4H485-AA it was 1.94; in the assay with 4H3120-AA, -1.56; with 4H710-AA, 0.748; in the assay with 4H3753-AA, -1.26. Further, the interaction score in the assay with 4H3410-AA is -1.72; in the assay with 4H891-AA, -1.64; with 4H3865-AA it was -1.16; in the assay with 4H2865-AA it was -1.08.
Regarding DKNAALEAKIAALKAKNAALKAEIAALEG [4H3449-AA], the interaction score is -1.96 with 4H380-AA; -1.74 with 4H3915-AA; -2.07 with 4H3449-AA; -1.65 with 4H3629-AA; 0.499 with 4H432-AA; -2.46 with 4H3777-AA. The interaction score in the assay with 4H3619-AA is -1.01; with 4H446-AA it was -1.41; with 4H3974-AA, -0.638; with 4H63-AA, -1.51.
Turning to DEIAALKAENAALEAENAALEAKIAALKG [4H662-AA], the interaction score with 4H662-AA came out at 0.217.
Regarding DKLAAEKAKNAALKAEAAALEAENAALEG [APC7524-AA], the interaction score in the assay with APC9182-AA was -1.85; with APC7524-AA, -1.65; in the assay with APC9141-AA it was -1.69; with APC8516-AA it was -1.83; in the assay with APC9291-AA it was -1.72; in the assay with APC8401-AA, -1.27. The interaction score with APC9806-AA is -1.98.
For the molecule DEIAALEAEIAALEAKNAALEAKNAALEG [4H55-AA], the interaction score is -1.54 with 4H55-AA and -1.57 with 4H662-AA (mean of both orientations).
In the case of DELAANEAKLAAIKAKLAANKAKLAAIKG [APC8191-AA], the interaction score was -1.88 with APC9319-AA, -1.76 with APC9096-AA, -1.9 in the assay with APC8910-AA and -1.48 with APC8191-AA.
